Experimental data reported in US20130273073A1 (University of California, published 2013).

What was measured:
[1] = target: human ROR1 with the glutamic acid at position 138 replaced with the murine lysine (human, UniProt Q01973 30-406, limits assumed); assay: murinized residue screen, western blot
Experimental: (§1) As a second level screen, a series of deletion constructs were generated to determine the actual extracellular ROR1 domain to which the mAbs bind. […] As a final step, the actual amino acids targeted by these antibodies were determined. For this final screen, murinized human amino acids in the sub-domain fragments were generated to determine critical residues required for mAb binding (FIG. 15).

[2] = target: T1, murine ROR1 (murine, UniProt Q9Z139 30-406, limits assumed); assay: screen for binding to human and murine ROR1
T1 construct: also called mouse ROR1
T1 sequence (Q9Z139 30-406 limits assumed): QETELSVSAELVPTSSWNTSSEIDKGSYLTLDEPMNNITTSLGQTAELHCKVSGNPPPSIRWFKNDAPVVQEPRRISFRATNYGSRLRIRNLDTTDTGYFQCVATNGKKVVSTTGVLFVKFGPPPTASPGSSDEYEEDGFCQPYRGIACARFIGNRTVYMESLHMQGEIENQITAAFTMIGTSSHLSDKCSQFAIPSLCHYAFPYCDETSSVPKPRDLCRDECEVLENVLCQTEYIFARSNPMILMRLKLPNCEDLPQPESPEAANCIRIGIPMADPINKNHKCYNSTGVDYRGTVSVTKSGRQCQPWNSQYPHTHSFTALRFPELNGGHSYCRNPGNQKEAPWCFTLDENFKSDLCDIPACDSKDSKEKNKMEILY

[3] = target: T2, human ROR1 (human, UniProt Q01973 30-406); assay: standard techniques, method not stated (FIG. 16A)
T2 construct: The immunogen was the extracellular portion (AA 1-406); also called hROR1; ROR1 protein
T2 sequence (Q01973 30-406 limits assumed): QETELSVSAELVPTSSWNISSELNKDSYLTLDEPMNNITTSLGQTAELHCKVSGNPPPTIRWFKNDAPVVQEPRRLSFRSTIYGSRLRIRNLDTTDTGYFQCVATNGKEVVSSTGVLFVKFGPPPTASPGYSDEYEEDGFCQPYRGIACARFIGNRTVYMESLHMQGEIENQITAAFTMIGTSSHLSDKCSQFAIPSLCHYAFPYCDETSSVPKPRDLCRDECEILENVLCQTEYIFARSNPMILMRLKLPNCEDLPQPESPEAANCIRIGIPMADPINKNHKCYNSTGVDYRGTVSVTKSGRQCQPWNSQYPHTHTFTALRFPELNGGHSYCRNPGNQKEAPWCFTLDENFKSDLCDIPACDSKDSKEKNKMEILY

[4] = target: T2, human ROR1; assay: binding site mapping
Experimental: as §1

[5] = target: T2, human ROR1; assay: cross blocking, competitor D10
[6] = target: human ROR1 with the isoleucine at position 111 replaced with the murine asparagine (human, UniProt Q01973 30-406, limits assumed); assay: murinized residue screen, western blot
human ROR1 with the isoleucine at position 111 replaced with the murine asparagine, sequence (Q01973 30-406 I111N limits assumed): as the sequence (Q01973 30-406 limits assumed) above, with I82N counted along it
Experimental: as §1

[7] = target: T2, human ROR1; assay: standard techniques, method not stated (FIG. 16B)

human ROR1 with the glutamic acid at position 138 replaced with the murine lysine, sequence (Q01973 30-406 E138K limits assumed): as the sequence (Q01973 30-406 limits assumed) above, with E109K counted along it

B1: D10 mouse anti-ROR1 mAb (antibody, V domains shown)
VH: QVQLKESGPGLVAPSQTLSITCTVSGFSLTSYGVHWVRQPPGKGLEWLGVIWAGGFTNYNSALKSRLSISKDNSKSQVLLKMTSLQTDDTAMYYCARRGSSYSMDYWGQGTSVTVSS
VL: EIVLSQSPAITAASLGQKVTITCSASSNVSYIHWYQQRSGTSPRPWIYEISKLASGVPVRFSGSGSGTSYSLTISSMEAEDAAIYYCQQWNYPLITFGSGTKLEIQ
notes: also called D10 mAb; anti-ROR1 antibody D10
B1 was tested, and the binding result [1] was “no binding”, the binding result [2] was “no binding” and the Kd [3] was 40 nM.

B2: G3 mouse anti-ROR1 mAb (antibody, V domains shown)
VH: QVQLQQPGAELVKPGTSVKLSCKASGYNFTNYWINWVKLRPGQGLEWIGEIYPGSGSTNYNEKFKSKATLTADTSSSTAYMQLSSLASEDSALYYCARDGNYYAMDYWGQGTSVTVSS
VL: DIQMTQTTSSLSASLGDRVTITCRASQDINNYLNWYQQKPDGTVKLLIYYTSALHSGVPSRFSGSGSGTDYSLTISNLEQEDIATYFCQQGNTLPPYTFGGGTKLEIK
B2: binds [4].

B3: F2 mouse anti-ROR1 mAb (antibody, V domains shown)
VH: EVQLQQSGPELEKPGASVKISCKASGFAFTGYNMNWVKQTNGKSLEWIGSIDPYYGGSTYNQKFKDKATLTVDKSSSTAYMQLKSLTSDDSAVYYCARSPGGDYAMDYWGQGTSVTVSS
VL: DIKMTQSPSSMYASVGERVTITCKASQGINSYSGWFQQKPGKSPKTLIYRGNRLVDGVPSRFSGSGSGQDYSLTISSLEYEDMGIYYCLQYDEFPYTFGGGTKLEIK
B3: binds [5].

B4: F12 mouse anti-ROR1 mAb (antibody, V domains shown)
VH: EVQLQQSGPELEKPGASVKISCKASGFAFTGYNMNWVKQTNGKSLEWIGSIDPYYGGSTYNQKFKDKATLTVDKSSSTAYMQLKSLTSDDSAVYYCARSPGGDYAMDYWGQGTSVTVSS
VL: DIKMTQSPSSMYASVGERVTITCKASQGINSYSGWFQQKPGKSPKTLIYRGNRLVDGVPSRFSGSGSGQDYSLTISSLEYEDMGIYYCLQYDEFPYTFGGGTKLEIK
B4: binds [5].

B5: G6 mouse anti-ROR1 mAb (antibody, V domains shown)
VH: EVQLQQSGPELEKPGASVKISCKASGFAFTGYNMNWVKQTNGKSLEWIGSIDPYYGGSTYNQKFKDKATLTVDKSSSTAYMQLKSLTSDDSAVYYCARSPGGDYAMDYWGQGTSVTVSS
VL: DIKMTQSPSSMYASVGERVTITCKASQGINSYSGWFQQKPGKSPKTLIYRGNRLVDGVPSRFSGSGSGQDYSLTISSLEYEDMGIYYCLQYDEFPYTFGGGTKLEIK
B5: binds [5].

B6: 4A5 mouse anti-ROR1 mAb (antibody, V domains shown)
VH: EVKLVESGGGLVKPGGSLKLSCAASGFTFSSYAMSWVRQIPEKRLEWVASISRGGTTYYPDSVKGRFTISRDNVRNILYLQMSSLRSEDTAMYYCGRYDYDGYYAMDYWGQGTSVTVSS
VL: DIKMTQSPSSMYASLGERVTITCKASPDINSYLSWFQQKPGKSPKTLIYRANRLVDGVPSRFSGGGSGQDYSLTINSLEYEDMGIYYCLQYDEFPYTFGGGTKLEMK
notes: also called 4A5 mAb; anti-ROR1 antibody 4A5
In the case of B6, the binding result [6] is reported as “no binding”, the binding result [2] is reported as “no binding” and the Kd [7] is reported as 4 nM.

B7: G11 mouse anti-ROR1 mAb (antibody, V domains shown)
VH: EVKLVESGGGLVKPGGSLKLSCAASGFTFSSYAMSWVRQTPEKRLEWVASISTGASAYFPDSVKGRFTISRDNARNILYLQMSSLRSEDTAMYYCARITTSTWYFDVWGAGTTVTVSS
VL: DIKMTQSPSSMYASLGERVTITCKASQDINSYLSWFQQKPGKSPKTLIYRANRLVDGVPSRFSGSGSGQDYSLTISSLEYEDMGIYYCLQYDEFPYTFGGGTKLEIK
B7: binds [4].

B8: H10 mouse anti-ROR1 mAb (antibody, V domains shown)
VH: EVKLVESGGGLVKPGGSLKLSCAASGFTFSSYAMSWVRQTPEKRLEWVASISTGASAYFPDSVKGRFTISRDNARNILYLQMSSLRSEDTAMYYCARITTSTWYFDVWGAGTTVTVSS
VL: DIKMTQSPSSMYASLGERVTITCKASQDINSYLSWFQQKPGKSPKTLIYRANRLVDGVPSRFSGSGSGQDYSLTISSLEYEDMGIYYCLQYDEFPYTFGGGTKLEIK
B8: binds [4].
